The record followed here is PMC7891936.

The target of the experiment is Recombinant human cartilage oligomeric matrix protein (COMP) (human) (UniProt P49747). As to the kind of experiment: atomic force microscopy.

Sequence of Recombinant human cartilage oligomeric matrix protein (COMP), P49747 21-757 (natural protein; other documents disagree on this pair) (P49747 21-757): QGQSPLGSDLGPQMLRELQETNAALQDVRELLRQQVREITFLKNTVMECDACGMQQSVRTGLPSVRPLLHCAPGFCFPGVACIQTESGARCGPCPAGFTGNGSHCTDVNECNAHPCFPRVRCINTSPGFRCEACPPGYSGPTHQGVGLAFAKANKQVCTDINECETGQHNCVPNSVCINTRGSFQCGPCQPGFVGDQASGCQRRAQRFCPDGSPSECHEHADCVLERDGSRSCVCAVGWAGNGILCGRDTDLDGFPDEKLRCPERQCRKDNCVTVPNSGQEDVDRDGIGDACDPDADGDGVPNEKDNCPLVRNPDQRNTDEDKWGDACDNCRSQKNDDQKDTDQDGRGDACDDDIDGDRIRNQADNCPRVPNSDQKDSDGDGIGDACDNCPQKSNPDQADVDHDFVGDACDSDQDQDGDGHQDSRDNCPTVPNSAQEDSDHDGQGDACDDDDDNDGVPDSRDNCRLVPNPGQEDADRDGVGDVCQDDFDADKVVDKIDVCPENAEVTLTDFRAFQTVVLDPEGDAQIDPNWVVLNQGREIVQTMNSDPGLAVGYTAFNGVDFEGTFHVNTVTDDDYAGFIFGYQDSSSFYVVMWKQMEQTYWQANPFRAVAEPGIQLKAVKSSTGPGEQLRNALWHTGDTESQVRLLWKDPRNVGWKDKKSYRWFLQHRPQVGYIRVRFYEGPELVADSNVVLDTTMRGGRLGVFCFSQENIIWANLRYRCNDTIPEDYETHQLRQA

As for “Recombinant human cartilage oligomeric matrix protein (COMP), P49747 21-757 (natural protein; other documents disagree on this pair)”, the stoichiometry N (in general, the number of molecules, sites or subunits per partner or assembly) worked out at 5.
